{
  "source": "patent US20170298113A1",
  "about": "(TEL HASHOMER MEDICAL RESEARCH INFRASTRUCTURE AND SERVICES, published 2017)",
  "binders": {"B1": {"name": "Compound 9 (peptide)", "peptide": "{FITC′-GABA}-CRF[dW]KTF[N(2-mercaptoethyl)Gly]-NH2", "modifications": "disulfide 1-8", "notes": "Synthetic cyclic peptide-fluorescent agent conjugate; also called 21"}},
  "key": {"[1]": {"biological_target": "human somatostatin receptor subtype SSTR5 (human) (UniProt P35346)", "sequence (P35346 whole entry)": "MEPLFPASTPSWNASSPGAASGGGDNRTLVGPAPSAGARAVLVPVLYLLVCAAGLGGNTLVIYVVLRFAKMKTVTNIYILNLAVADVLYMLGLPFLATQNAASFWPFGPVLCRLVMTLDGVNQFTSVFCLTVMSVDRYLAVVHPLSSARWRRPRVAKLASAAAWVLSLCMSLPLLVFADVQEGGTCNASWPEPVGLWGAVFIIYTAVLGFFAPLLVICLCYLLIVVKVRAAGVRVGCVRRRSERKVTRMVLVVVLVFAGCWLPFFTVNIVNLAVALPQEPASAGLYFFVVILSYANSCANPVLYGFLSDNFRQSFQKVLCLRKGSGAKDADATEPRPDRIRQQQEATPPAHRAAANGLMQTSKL", "assay": "FACS, transfected HEK-293 cells; normalised to Compound 1"}, "[2]": {"biological_target": "human somatostatin receptor subtype SSTR1 (human) (UniProt P30872)", "sequence (P30872 whole entry)": "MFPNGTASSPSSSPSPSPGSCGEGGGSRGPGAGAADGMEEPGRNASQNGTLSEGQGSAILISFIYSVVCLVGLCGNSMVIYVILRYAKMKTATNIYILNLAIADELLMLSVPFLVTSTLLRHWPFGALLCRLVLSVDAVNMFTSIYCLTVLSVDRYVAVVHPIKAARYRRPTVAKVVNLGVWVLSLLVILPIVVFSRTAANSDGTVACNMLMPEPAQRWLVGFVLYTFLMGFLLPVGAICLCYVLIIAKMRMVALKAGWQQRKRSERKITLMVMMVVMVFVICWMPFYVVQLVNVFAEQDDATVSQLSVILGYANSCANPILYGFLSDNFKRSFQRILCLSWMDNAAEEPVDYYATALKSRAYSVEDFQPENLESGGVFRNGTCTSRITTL", "assay": "FACS, transfected HEK-293 cells; normalised to Compound 1"}, "[3]": {"biological_target": "human somatostatin receptor subtype SSTR4 (human) (UniProt P31391)", "sequence (P31391 whole entry)": "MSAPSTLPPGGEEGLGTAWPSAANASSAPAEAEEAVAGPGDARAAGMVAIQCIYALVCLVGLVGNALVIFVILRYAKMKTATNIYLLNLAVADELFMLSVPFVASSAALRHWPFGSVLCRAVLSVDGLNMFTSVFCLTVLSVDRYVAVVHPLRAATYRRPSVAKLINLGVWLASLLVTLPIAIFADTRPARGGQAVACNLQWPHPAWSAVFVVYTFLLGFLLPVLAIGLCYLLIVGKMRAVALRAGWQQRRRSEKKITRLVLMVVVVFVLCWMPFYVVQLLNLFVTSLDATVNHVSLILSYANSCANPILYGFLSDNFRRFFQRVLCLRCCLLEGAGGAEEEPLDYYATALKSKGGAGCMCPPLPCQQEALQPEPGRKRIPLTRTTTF", "assay": "FACS, transfected HEK-293 cells; normalised to Compound 1"}, "[4]": {"biological_target": "human somatostatin receptor subtype SSTR3 (human) (UniProt P32745)", "sequence (P32745 whole entry)": "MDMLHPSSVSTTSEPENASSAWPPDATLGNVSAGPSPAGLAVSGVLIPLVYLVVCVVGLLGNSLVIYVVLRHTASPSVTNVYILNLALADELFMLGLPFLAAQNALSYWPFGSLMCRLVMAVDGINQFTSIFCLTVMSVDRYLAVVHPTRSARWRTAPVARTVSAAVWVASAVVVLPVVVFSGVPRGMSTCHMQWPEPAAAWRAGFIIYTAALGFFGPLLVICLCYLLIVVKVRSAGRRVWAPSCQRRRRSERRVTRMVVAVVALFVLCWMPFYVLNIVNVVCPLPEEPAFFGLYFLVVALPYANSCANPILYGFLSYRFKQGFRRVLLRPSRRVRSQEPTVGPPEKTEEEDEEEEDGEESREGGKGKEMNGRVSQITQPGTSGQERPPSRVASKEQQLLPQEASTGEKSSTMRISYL", "assay": "FACS, transfected HEK-293 cells; normalised to Compound 1"}, "[5]": {"biological_target": "human somatostatin receptor subtype SSTR2 (human) (UniProt P30874)", "sequence (P30874 whole entry)": "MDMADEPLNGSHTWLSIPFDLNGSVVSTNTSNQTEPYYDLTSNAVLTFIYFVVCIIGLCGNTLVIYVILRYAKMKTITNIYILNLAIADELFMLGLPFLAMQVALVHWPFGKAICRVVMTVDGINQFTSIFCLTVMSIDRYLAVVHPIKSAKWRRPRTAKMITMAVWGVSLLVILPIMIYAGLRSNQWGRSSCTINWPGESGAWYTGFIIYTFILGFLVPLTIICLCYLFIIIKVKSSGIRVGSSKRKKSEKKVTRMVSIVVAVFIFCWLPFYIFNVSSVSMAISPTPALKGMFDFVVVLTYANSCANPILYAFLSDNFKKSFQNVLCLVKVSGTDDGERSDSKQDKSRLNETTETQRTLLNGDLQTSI", "assay": "FACS, transfected HEK-293 cells; normalised to Compound 1"}, "[6]": {"biological_target": "human somatostatin receptor subtype SSTR5 (human) (UniProt P35346)", "assay": "FACS, transfected HEK-293 cells"}, "[7]": {"biological_target": "human somatostatin receptor subtype SSTR1 (human) (UniProt P30872)", "assay": "FACS, transfected HEK-293 cells"}, "[8]": {"biological_target": "human somatostatin receptor subtype SSTR4 (human) (UniProt P31391)", "assay": "FACS, transfected HEK-293 cells"}, "[9]": {"biological_target": "human somatostatin receptor subtype SSTR3 (human) (UniProt P32745)", "assay": "FACS, transfected HEK-293 cells"}, "[10]": {"biological_target": "human somatostatin receptor subtype SSTR2 (human) (UniProt P30874)", "assay": "FACS, transfected HEK-293 cells"}, "[11]": {"biological_target": "human somatostatin receptor subtype SSTR5 (human) (UniProt P35346)", "assay": "FACS, transfected HEK-293 cells; row normalised to highest"}, "[12]": {"biological_target": "human somatostatin receptor subtype SSTR1 (human) (UniProt P30872)", "assay": "FACS, transfected HEK-293 cells; row normalised to highest"}, "[13]": {"biological_target": "human somatostatin receptor subtype SSTR4 (human) (UniProt P31391)", "assay": "FACS, transfected HEK-293 cells; row normalised to highest"}, "[14]": {"biological_target": "human somatostatin receptor subtype SSTR3 (human) (UniProt P32745)", "assay": "FACS, transfected HEK-293 cells; row normalised to highest"}, "[15]": {"biological_target": "human somatostatin receptor subtype SSTR2 (human) (UniProt P30874)", "assay": "FACS, transfected HEK-293 cells; row normalised to highest"}, "[16]": {"biological_target": "T1, human somatostatin receptor subtype SSTR2 (human, UniProt P30874 1-369)", "T1 construct": "whole, on cells", "T1 sequence (P30874 whole entry)": "as above", "assay": "FACS, transfected HEK-293 cells; normalised to Compound 1", "method": "(§1) Biological activity assessment of the compounds to define a specific affinity to each subtype was performed by FACS and fluorescence imaging methods.\n(§2) The transfection process is illustrated in FIG. 1. The transient transfection process was carried out before each experiment. Briefly, HEK cells were cultured in standard cell growth conditions. For testing, the cells were transferred into 96-well plates. The tested compounds were dissolved in DMSO and then diluted in a buffer solution to a final DMSO concentration of 5% as a composition according to the teachings herein. Various amounts of the thus-prepared compositions were added to the cells in medium in the 96-well plates and allowed to incubate for between 1 and 24 hours. Binding was determined using fluorescent microscopy and FACS.\n(§3) The cells were incubated for additional time intervals ranging from 0.5-24 hr. At the end of the incubation period, supernatant was discarded and the cells were washed twice with cold PBS. The plates were examined using IX81 inverted microscope (Olympus, Japan) equipped with PR71 digital camera. Additionally, a FACS assay was used for quantitative analysis."}, "[17]": {"biological_target": "T2, human somatostatin receptor subtype SSTR4 (human, UniProt P31391 1-388)", "T2 construct": "whole, on cells", "T2 sequence (P31391 whole entry)": "as the sequence (P31391 whole entry) above", "assay": "FACS, transfected HEK-293 cells; normalised to Compound 1", "method": "as §1, §2, §3"}, "[18]": {"biological_target": "T3, human somatostatin receptor subtype SSTR3 (human, UniProt P32745 1-418)", "T3 construct": "whole, on cells", "T3 sequence (P32745 whole entry)": "as the sequence (P32745 whole entry) above", "assay": "FACS, transfected HEK-293 cells; normalised to Compound 1", "method": "as §1, §2, §3"}, "[19]": {"biological_target": "T4, human somatostatin receptor subtype SSTR1 (human, UniProt P30872 1-391)", "T4 construct": "whole, on cells", "T4 sequence (P30872 whole entry)": "as the sequence (P30872 whole entry) above", "assay": "FACS, transfected HEK-293 cells; normalised to Compound 1", "method": "as §1, §2, §3"}, "[20]": {"biological_target": "T5, human somatostatin receptor subtype SSTR5 (human, UniProt P35346 1-364)", "T5 construct": "whole, on cells; also called SSTRS", "T5 sequence (P35346 whole entry)": "as the sequence (P35346 whole entry) above", "assay": "FACS, transfected HEK-293 cells; normalised to Compound 1", "method": "as §1, §2, §3"}, "[21]": {"biological_target": "T1, human somatostatin receptor subtype …", "assay": "FACS, transfected HEK-293 cells; row normalised to highest", "method": "as §1, §2, §3"}, "[22]": {"biological_target": "T2, human somatostatin receptor subtype …", "assay": "FACS, transfected HEK-293 cells; row normalised to highest", "method": "as §1, §2, §3"}, "[23]": {"biological_target": "T3, human somatostatin receptor subtype …", "assay": "FACS, transfected HEK-293 cells; row normalised to highest", "method": "as §1, §2, §3"}, "[24]": {"biological_target": "T4, human somatostatin receptor subtype …", "assay": "FACS, transfected HEK-293 cells; row normalised to highest", "method": "as §1, §2, §3"}, "[25]": {"biological_target": "T5, human somatostatin receptor subtype …", "assay": "FACS, transfected HEK-293 cells; row normalised to highest", "method": "as §1, §2, §3"}, "[26]": {"biological_target": "T1, human somatostatin receptor subtype …", "assay": "FACS, transfected HEK-293 cells", "method": "as §1, §2, §3"}, "[27]": {"biological_target": "T2, human somatostatin receptor subtype …", "assay": "FACS, transfected HEK-293 cells", "method": "as §1, §2, §3"}, "[28]": {"biological_target": "T3, human somatostatin receptor subtype …", "assay": "FACS, transfected HEK-293 cells", "method": "as §1, §2, §3"}, "[29]": {"biological_target": "T5, human somatostatin receptor subtype …", "assay": "FACS, transfected HEK-293 cells", "method": "as §1, §2, §3"}},
  "note": "*1 amine or outer side, *2 acyl side, *3 side chain or, on linkers, in order; H or OH if unused. Bridges are numbered along the chain shown (N, C = ends). Primed or numbered codes have the meaning given here. [ ]: non-standard residue; d: D form. N(2-mercaptoethyl)Gly = O=C(CN(CCS[*:3])[*:1])[*:2]; FITC′ = fluorescein isothiocyanate; GABA = NCCCC(=O)O",
  "data": [
    {"binder": "{FITC′-GABA}-[dF]CYW[dW]KTF[N(2-mercaptoethyl)Gly]-NH2 (disulfide 2-9)", "note": "[Compound 4]", "values": [
      {"measurement": "Binding affinity relative to Compound 1 (% of Compound 1)", "setting": "[1]", "result": 4},
      {"measurement": "Binding affinity relative to Compound 1 (% of Compound 1)", "setting": "[2]", "result": 100},
      {"measurement": "Binding affinity relative to Compound 1 (% of Compound 1)", "setting": "[3]", "result": 36},
      {"measurement": "Binding affinity relative to Compound 1 (% of Compound 1)", "setting": "[4]", "result": 141},
      {"measurement": "Binding affinity relative to Compound 1 (% of Compound 1)", "setting": "[5]", "result": 123},
      {"measurement": "Relative binding affinity", "setting": "[6]", "result": 9.3, "unit": "%"},
      {"measurement": "Relative binding affinity", "setting": "[7]", "result": 3.6, "unit": "%"},
      {"measurement": "Relative binding affinity", "setting": "[8]", "result": 13.3, "unit": "%"},
      {"measurement": "Relative binding affinity", "setting": "[9]", "result": 15.7, "unit": "%"},
      {"measurement": "Relative binding affinity", "setting": "[10]", "result": 4.3, "unit": "%"},
      {"measurement": "Adjusted binding affinity", "setting": "[11]", "result": 0.4},
      {"measurement": "Adjusted binding affinity", "setting": "[12]", "result": 0.13},
      {"measurement": "Adjusted binding affinity", "setting": "[13]", "result": 0.33},
      {"measurement": "Adjusted binding affinity", "setting": "[14]", "result": 1},
      {"measurement": "Adjusted binding affinity", "setting": "[15]", "result": 0.33}
    ]},
    {"binder": "{FITC′-GABA}-[dF]CFW[dW]RTF[N(2-mercaptoethyl)Gly]-NH2 (disulfide 2-9)", "note": "[Compound 15]", "values": [
      {"measurement": "Binding affinity relative to Compound 1 (% of Compound 1)", "setting": "[1]", "result": 26},
      {"measurement": "Binding affinity relative to Compound 1 (% of Compound 1)", "setting": "[2]", "result": 133},
      {"measurement": "Binding affinity relative to Compound 1 (% of Compound 1)", "setting": "[3]", "result": 40},
      {"measurement": "Binding affinity relative to Compound 1 (% of Compound 1)", "setting": "[4]", "result": 79},
      {"measurement": "Binding affinity relative to Compound 1 (% of Compound 1)", "setting": "[5]", "result": 77},
      {"measurement": "Relative binding affinity", "setting": "[6]", "result": 7.5, "unit": "%"},
      {"measurement": "Relative binding affinity", "setting": "[7]", "result": 4, "unit": "%"},
      {"measurement": "Relative binding affinity", "setting": "[8]", "result": 9, "unit": "%"},
      {"measurement": "Relative binding affinity", "setting": "[9]", "result": 13.5, "unit": "%"},
      {"measurement": "Relative binding affinity", "setting": "[10]", "result": 5, "unit": "%"},
      {"measurement": "Adjusted binding affinity", "setting": "[11]", "result": 0.56},
      {"measurement": "Adjusted binding affinity", "setting": "[12]", "result": 0.3},
      {"measurement": "Adjusted binding affinity", "setting": "[13]", "result": 0.67},
      {"measurement": "Adjusted binding affinity", "setting": "[14]", "result": 1},
      {"measurement": "Adjusted binding affinity", "setting": "[15]", "result": 0.37}
    ]},
    {"binder": "B1", "values": [
      {"measurement": "Binding affinity relative to Compound 1", "setting": "[16]", "result": "154 % of Compound 1"},
      {"measurement": "Binding affinity relative to Compound 1", "setting": "[17]", "result": "67 % of Compound 1"},
      {"measurement": "Binding affinity relative to Compound 1", "setting": "[18]", "result": "82 % of Compound 1"},
      {"measurement": "Binding affinity relative to Compound 1", "setting": "[19]", "result": "0 % of Compound 1"},
      {"measurement": "Binding affinity relative to Compound 1", "setting": "[20]", "result": "70 % of Compound 1"},
      {"measurement": "Adjusted binding affinity", "setting": "[21]", "result": 0.5},
      {"measurement": "Adjusted binding affinity", "setting": "[22]", "result": 0.75},
      {"measurement": "Adjusted binding affinity", "setting": "[23]", "result": 0.7},
      {"measurement": "Adjusted binding affinity", "setting": "[24]", "result": 0},
      {"measurement": "Adjusted binding affinity", "setting": "[25]", "result": 1},
      {"measurement": "Relative binding affinity", "setting": "[26]", "result": 10, "unit": "%"},
      {"measurement": "Relative binding affinity", "setting": "[27]", "result": 15, "unit": "%"},
      {"measurement": "Relative binding affinity", "setting": "[28]", "result": 14, "unit": "%"},
      {"measurement": "Relative binding affinity", "setting": "[29]", "result": 20, "unit": "%"}
    ]}
  ]
}
